These results are taken from patent publication US10603364B2, “Lysosomal targeting and uses thereof” (Shire Human Genetic Therapies, Inc., priority 2014, dated 2020).

For data set [1], the system named is Naglu KO mice. Nature of the data set: Sanfillipo B specific biomarkers in brain by LC/MS. In kind it is in vivo. Conditions: intrathecal, 520 mg/kg brain, especially 2× weekly and 3× weekly. As for the experimental part: (§1) To evaluate the in vivo activity of Naglu-SPP and its efficacy as a therapeutic for the treatment of lysosomal storage diseases, particularly San B, Naglu-SPP was administered to Naglu KO mice via intrathecal injection. Intrathecal administration of Naglu-IGFII served as a positive control. The experimental conditions used for this assay are described in Tables 10 and 11 below.
Using the same LC/MS technology as used for the quantification of heparin sulfate (see above), the presence of Sanfillipo B specific biomarkers in brains of treated KO mice were evaluated. Naglu deficiency causes the accumulation of certain heparin sulfate degradation products (presented in FIGS. 13A-C) which are natural substrates of Naglu. These biomarkers are the most relevant indications for Naglu deficiency.

In data set [2] the test system is Naglu KO mice. Nature of the data set: Total glycosaminoglycan (GAG) in liver and brain, dimethylmethylene blue. It counts as in vivo. Conditions: intrathecal, 520 mg/kg brain; brain significant in 2× and 3× weekly groups. How it is done: as §1
The activity of Naglu-SPP and Naglu-IGFII in vivo was also evaluated by examining the intracellular accumulation of natural substrates of Naglu in treated mice. One such assay was designed to evaluate the total concentration of glycosaminoglycan (GAG) in liver (FIG. 11A) and brain (FIG. 11B) tissue of treated mice in accordance with de Jong et al. (Clin Chem 38(6):803-807, 1992). Briefly, liver tissue was homogenized and total GAG quantified using dimethylmethylene blue. Brain tissue was homogenized and then incubated with pronase and benzonase to break down protein and nucleic acid. Total GAG was then extracted by passing the brain homogenate through a DEAE column. The eluate was further buffer exchanged through a desalting column, and the total GAG content was quantified using dimethylmethylene blue. […] The reduction of total GAG amount in brain tissue was significant in the 2× weekly as well as the 3× weekly treatment groups.

Data set [3] concerns SORT overexpressing cells. Nature of the data set: Immunofluorescence microscopy of cellular entry and lysosomal targeting (Naglu / Lamp-1). It counts as cell-based. As for the experimental part: Studies were carried out using immunofluorescence microscopy to evaluate cellular entry and lysosomal targeting. For these studies, SORT overexpressing cells were treated with vehicle control or Naglu-SPP and then fixed and prepared for staining. Both vehicle control (FIG. 6A) and Naglu-SPP (FIG. 6B) treated cells were stained using antibodies specific for human Naglu and Lamp-1, a lysosome-specific protein biomarker.

The test system of data set [4] is Naglu KO mice. Nature of the data set: Naglu enzyme activity in tissues of Naglu KO mice after intrathecal administration. It counts as in vivo. To be noted: 520 mg/kg brain, 24 hrs post final dose. How it is done: as §1
24 hours after intrathecal administration of each respective fusion protein, Naglu KO mice were sacrificed and Naglu enzyme activity in various tissues was assayed. Total Naglu activity was evaluated using a well-established enzyme activity assay. Briefly, tissue homogenate was incubated in the presence of the Naglu specific substrate methylumbelliferyl-N-acetyl-α-D-glucosainide, and accumulation of cleavage product was measured by examining fluorescence intensity at 360/460 nm (excitation/emission) using a fluorescent plate reader. […] This increase in enzyme activity was observed over the duration of the 3 week treatment period.

The test system of data set [5] is wild-type rats. Nature of the data set: Immunohistochemistry of Naglu protein in brain tissue after intrathecal administration. In kind it is in vivo. How it is done:
(§2) To evaluate biodistribution of the SORT1-binding Naglu fusion proteins, an in vivo study was conducted using wild-type rats subjected to intrathecal administration of vehicle control (PBS), rhNaglu, Naglu-IGFII, Naglu-SPP, Naglu-SapDC or Naglu-tPRGN. Details of the experimental design are provide in Table 9 below. Previous experiments had shown that Naglu-IGFII but not rhNaglu penetrates into brain tissue and is targeted to lysosomes after intrathecal injection. Accordingly, rhNaglu and Naglu-IGFII were utilized in this study as negative and positive controls, respectively.
Rats were sacrificed either 4 or 24 hours post intrathecal administration of the respective fusion protein. Brain tissue samples were collected, fixed in 10% NBF and processed for paraffin embedding. 5 μm paraffin sections from each tissue assayed were subjected to immunostaining using an anti-human Naglu antibody.

Data set [6] has as its system Naglu KO mice. Nature of the data set: Immunohistochemical staining of Lamp-1, GFAP and Iba-1 in brain and liver. It counts as in vivo. To be noted: intrathecal. How it is done:
as §1
The lysosomal targeting of Naglu-SPP and Naglu-IGFII was further examined by immunohistochemical analysis. Tissue samples were collected, fixed in 10% NBF and processed for paraffin embedding. For each tissue assayed, 5 μm paraffin sections was subjected to immunostaining using antibodies against lamp lysosomal associated membrane protein 1 (Lamp-1), glial fibrillary acidic protein (GFAP) and the ionized calcium-binding adapter molecule 1 (Iba-1).

In data set [7] the test system is wild-type rats. Nature of the data set: Naglu enzyme activity in liver and brain after intrathecal administration (biodistribution). In kind it is in vivo. Conditions: 385 ug/animal. How it is done:
as §2
Rats were sacrificed either 4 or 24 hours post intrathecal administration of the respective fusion protein and total Naglu enzyme activity in the animals' liver and brain tissue was determined using a well-established enzyme activity assay (FIGS. 7A and B). Briefly, brain and liver tissue homogenates were prepared and incubated in the presence of a Naglu specific substrate, i.e., methylumbelliferyl-N-acetyl-α-D-glucosainide; accumulation of cleavage product was then measured by examining fluorescence intensity at 360/460 nm (excitation/emission) using a fluorescent plate reader.

Data set [8] relates to SORT1 overexpressing cells. Nature of the data set: Cellular uptake in Sortilin overexpressing cells (intracellular Naglu enzyme activity). In kind it is cell-based. Conditions: absence of Neurotensin. As for the experimental part: A cell line was established overexpressing SORT1, using standard technologies known in the art. […] After a specified period of time, the supernatant was removed and the cells were washed repeatedly. Then, cells were lysed and each sample was assayed for Naglu enzyme activity.

B1: Naglu-SPP: Fusion protein of human Naglu and SORT1 propeptide (SPP) via GAG3 linker; SEQ ID NO:17 (full-length), SEQ ID NO:22 (protein)
chain: MEAVAVAAAVGVLLLAGAGGAAGDEAREAAAVRALVARLLGPGPAADFSVSVERALAAKPGLDTYSLGGGGAARVRVRGSTGVAAAAGLHRYLRDFCGCHVAWSGSQLRLPRPLPAVPGELTEATPNRYRYYQNVCTQSYSFVWWDWARWEREIDWMALNGINLALAWSGQEAIWQRVYLALGLTQAEINEFFTGPAFLAWGRMGNLHTWDGPLPPSWHIKQLYLQHRVLDQMRSFGMTPVLPAFAGHVPEAVTRVFPQVNVTKMGSWGHFNCSYSCSFLLAPEDPIFPIIGSLFLRELIKEFGTDHIYGADTFNEMQPPSSEPSYLAAATTAVYEAMTAVDTEAVWLLQGWLFQHQPQFWGPAQIRAVLGAVPRGRLLVLDLFAESQPVYTRTASFQGQPFIWCMLHNFGGNHGLFGALEAVNGGPEAARLFPNSTMVGTGMAPEGISQNEVVYSLMAELGWRKDPVPDLAAWVTSFAARRYGVSHPDAGAAWRLLLRSVYNCSGEACRGHNRSPLVRRPSLQMNTSIWYNRSDVFEAWRLLLTSAPSLATSPAFRYDLLDLTRQAVQELVSLYYEEARSAYLSKELASLLRAGGVLAYELLPALDEVLASDSRFLLGSWLEQARAAAVSEAEADFYEQNSRYQLTLWGPEGNILDYANKQLAGLVANYYTPRWRLFLEALVDSVAQGIPFQQHQFDKNVFQLEQAFVLSKQRYPSQPRGDTVDLAKKIFLKYYPRWVAGSWGAPGGGGGAAAAAGGGGGGAPGGGGGAAAAAGGGGGGAPGGGGGAAAAAGGGGGGAPQDRLDAPPPPAAPLPRWSGPIGVSWGLRAAAAGGAFPRGGRWRR
Take B1: the “accumulation of three GAG cleavage products (San B biomarkers) in brain” value in the data set on Naglu KO mice [1] was “dramatic decrease”. The “total GAG concentration in liver and brain tissue vs vehicle control” value in the data set with Naglu KO mice [2] is recorded as “significant reduction”. The “intracellular localization of Naglu fluorescence (co-localization with Lamp-1)” value in data set [3] is “localized predominantly within lysosomal vesicles”. The “Naglu activity in liver and brain tissue vs vehicle control” value in the data set with Naglu KO mice [4] is “dramatic increase”. In addition, the “Naglu immunostaining in cerebral cortex / brain parenchyma” value in the data set with wild-type rats [5] (4 and 24 hours post treatment) is listed as “positive staining”. In the data set on wild-type rats [5] (24 hours post injection), the “Naglu immunostaining in cerebellum and hippocampal region” value was “strong Naglu signal”. The “Lamp-1 immunostaining in brain (cerebral cortex, cerebellum, thalamus, striatum, white matter)” value in the data set with Naglu KO mice [6] (2× weekly and 3× weekly) is “decrease”. Further, the “Lamp-1 immunoreactivity in liver” value in the data set with Naglu KO mice [6] (three weekly deliveries) is given as “reduced significantly”. Further, in the data set with Naglu KO mice [6] (three weekly injections), the “GFAP staining in cerebral cortex and cerebellum (astrocytes)” value is “reduced signal”; the “Iba-1 staining in cerebral cortex and cerebellum (microglial cells)” value is “microglial cells are reduced in size and have a smaller number of processes”. The “rank of Naglu enzyme activity in brain among treatments” value with wild-type rats [7] is reported as “highest activity”. The “Naglu enzyme activity in brain” value in the data set on wild-type rats [7] (4 or 24 hours post dose) is given as “markedly elevated levels”. Also, in data set [8], the Bmax of binding/uptake is 1260 nmol/h/mg and the “cellular internalization (intracellular Naglu activity)” value is “effectively internalized”.
